From publication PMC8938434, “Atomic resolution dynamics of cohesive interactions in phase-separated Nup98 FG domains” (Nature Communications, 2022) come the findings set out here.

Bounds are passed on as bounds.

Sequences and labels used below:
B1: GXFG//L_(52 × 12) (other)
chain: GGFGNTGLAPAGGTFGNTQLQQGGGQFGQPQLTQGGGAFGQTGLTTGGGNFGGATLTAPGGGFGGGGLNPTGGNFGGNNLQQTGGTFGQGTLQTGGGNFGAPQLNQGGGTFGGGTLTTGGGQFGANTLTGGGGQFGGPSLPTTAGPFGSNNLTTGGGNFGQPALTNNGGNFGGQTLNQASGQFGANNLPPTNGKFGNNNLPQTAGTFGGATLTGNTGNFGGANLTGGGGNFGNNTLNPTGGPFGATNLAGGGGTFGGGALTGGGGTFGGGNLQTGGGTFGTANLTTAGGTFGGGNLQPQNGTFGNNNLPATGGNFGQTNLAAPQGNFGGTNLNAASGAFGQKPLSANGVLTKPNEKNLCYAISNGTDFCIFELALTQRKLVKAGQLKPGAQAGGQFGQPALNTQGGAFGGGGLATTPGNFGGAQLNTTGGTFGGQNLQAGGGNFGAPNLAAATGAFGAGNLNTQGGAFGAKPLATGGGQFGQPALTQAGGQFGNTALPAGGGTFGGATLTPGGGAFGGNTLATGGGQFGGNTLGATGGPFGGQQLNNQGGAFGNTNLNTGGGTFGGATLTTGGGGFGGSTLATGGGQFGGASLPAAGGPFGGAALQQNSGAFGGATLGQTGGQFGGATLQQGGGSFGQTALNPGGGAFGAANLTTQPGQFGGNNLAATTS
B2: GLLG_(52 × 12) (other)
chain: GSGLLGNTGGAPAGGLLGNTQTQQGGGLLGQPQQTQGGGLLGQTGATTGGGLLGGATNTAPGGLLGGGGGNPTGGLLGGNNNQQTGGLLGQGTTQTGGGLLGAPQNNQGGGLLGGGTTTTGGGLLGANTQTGGGGLLGGPSQPTTAGLLGSNNPTTGGGLLGQPANTNNGGLLGGQTNNQASGLLGANNQPPTNGLLGNNNKPQTAGLLGGATTTGNTGLLGGANNTGGGGLLGNNTNNPTGGLLGATNPAGGGGLLGGGATTGGGGLLGGGNTQTGGGLLGTANTTTAGGLLGGGNTQPQNGLLGNNNTPATGGLLGQTNNAAPQGLLGGTNNNAASGLLGQKPASANGVLTKPNEKNLCYAISNGTDFCIFELALTQRKLVKAGQLKPGAQAGGLLGQPAQNTQGGLLGGGGAATTPGLLGGAQNNTTGGLLGGQNTQAGGGLLGAPNNAAATGLLGAGNANTQGGLLGAKPAATGGGLLGQPAQTQAGGLLGNTAQPAGGGLLGGATTTPGGGLLGGNTAATGGGLLGGNTQGATGGLLGGQQPNNQGGLLGNTNANTGGGLLGGATTTTGGGLLGGSTGATGGGLLGGASQPAAGGLLGGAAPQQNSGLLGGATAGQTGGLLGGATQQQGGGLLGQTASNPGGGLLGAANATTQPGLLGGNNQAATSC
B3: GXFG//V_(52 × 12) (other)
chain: GGFGNTGVAPAGGTFGNTQVQQGGGQFGQPQVTQGGGAFGQTGVTTGGGNFGGATVTAPGGGFGGGGVNPTGGNFGGNNVQQTGGTFGQGTVQTGGGNFGAPQVNQGGGTFGGGTVTTGGGQFGANTVTGGGGQFGGPSVPTTAGPFGSNNVTTGGGNFGQPAVTNNGGNFGGQTVNQASGQFGANNVPPTNGKFGNNNVPQTAGTFGGATVTGNTGNFGGANVTGGGGNFGNNTVNPTGGPFGATNVAGGGGTFGGGAVTGGGGTFGGGNVQTGGGTFGTANVTTAGGTFGGGNVQPQNGTFGNNNVPATGGNFGQTNVAAPQGNFGGTNVNAASGAFGQKPVSANGVLTKPNEKNLCYAISNGTDFCIFELALTQRKLVKAGQLKPGAQAGGQFGQPAVNTQGGAFGGGGVATTPGNFGGAQVNTTGGTFGGQNVQAGGGNFGAPNVAAATGAFGAGNVNTQGGAFGAKPVATGGGQFGQPAVTQAGGQFGNTAVPAGGGTFGGATVTPGGGAFGGNTVATGGGQFGGNTVGATGGPFGGQQVNNQGGAFGNTNVNTGGGTFGGATVTTGGGGFGGSTVATGGGQFGGASVPAAGGPFGGAAVQQNSGAFGGATVGQTGGQFGGATVQQGGGSFGQTAVNPGGGAFGAANVTTQPGQFGGNNVAATSC
B4: GLFG_(52 × 12) (other)
chain: GLFGNTGGAPAGGLFGNTQTQQGGGLFGQPQQTQGGGLFGQTGATTGGGLFGGATNTAPGGLFGGGGGNPTGGLFGGNNNQQTGGLFGQGTTQTGGGLFGAPQNNQGGGLFGGGTTTTGGGLFGANTQTGGGGLFGGPSQPTTAGLFGSNNPTTGGGLFGQPANTNNGGLFGGQTNNQASGLFGANNQPPTNGLFGNNNKPQTAGLFGGATTTGNTGLFGGANNTGGGGLFGNNTNNPTGGLFGATNPAGGGGLFGGGATTGGGGLFGGGNTQTGGGLFGTANTTTAGGLFGGGNTQPQNGLFGNNNTPATGGLFGQTNNAAPQGLFGGTNNNAASGLFGQKPASANGVLTKPNEKNLCYAISNGTDFCIFELALTQRKLVKAGQLKPGAQAGGLFGQPAQNTQGGLFGGGGAATTPGLFGGAQNNTTGGLFGGQNTQAGGGLFGAPNNAAATGLFGAGNANTQGGLFGAKPAATGGGLFGQPAQTQAGGLFGNTAQPAGGGLFGGATTTPGGGLFGGNTAATGGGLFGGNTQGATGGLFGGQQPNNQGGLFGNTNANTGGGLFGGATTTTGGGLFGGSTGATGGGLFGGASQPAAGGLFGGAAPQQNSGLFGGATAGQTGGLFGGATQQQGGGLFGQTASNPGGGLFGAANATTQPGLFGGNNQAATSC
B5: Atto488-coupled GLFG_(52 × 12) (other)
chain: GSGLFGNTGGAPAGGLFGNTQTQQGGGLFGQPQQTQGGGLFGQTGATTGGGLFGGATNTAPGGLFGGGGGNPTGGLFGGNNNQQTGGLFGQGTTQTGGGLFGAPQNNQGGGLFGGGTTTTGGGLFGANTQTGGGGLFGGPSQPTTAGLFGSNNPTTGGGLFGQPANTNNGGLFGGQTNNQASGLFGANNQPPTNGLFGNNNKPQTAGLFGGATTTGNTGLFGGANNTGGGGLFGNNTNNPTGGLFGATNPAGGGGLFGGGATTGGGGLFGGGNTQTGGGLFGTANTTTAGGLFGGGNTQPQNGLFGNNNTPATGGLFGQTNNAAPQGLFGGTNNNAASGLFGQKPASANGVLTKPNEKNLCYAISNGTDFCIFELALTQRKLVKAGQLKPGAQAGGLFGQPAQNTQGGLFGGGGAATTPGLFGGAQNNTTGGLFGGQNTQAGGGLFGAPNNAAATGLFGAGNANTQGGLFGAKPAATGGGLFGQPAQTQAGGLFGNTAQPAGGGLFGGATTTPGGGLFGGNTAATGGGLFGGNTQGATGGLFGGQQPNNQGGLFGNTNANTGGGLFGGATTTTGGGLFGGSTGATGGGLFGGASQPAAGGLFGGAAPQQNSGLFGGATAGQTGGLFGGATQQQGGGLFGQTASNPGGGLFGAANATTQPGLFGGNNQAATSC
modifications: Atto488 (coupled)
B6: Atto488-coupled GAFG_(52 × 12) (other)
chain: GSGAFGNTGGAPAGGAFGNTQTQQGGGAFGQPQQTQGGGAFGQTGATTGGGAFGGATNTAPGGAFGGGGGNPTGGAFGGNNNQQTGGAFGQGTTQTGGGAFGAPQNNQGGGAFGGGTTTTGGGAFGANTQTGGGGAFGGPSQPTTAGAFGSNNPTTGGGAFGQPANTNNGGAFGGQTNNQASGAFGANNQPPTNGAFGNNNKPQTAGAFGGATTTGNTGAFGGANNTGGGGAFGNNTNNPTGGAFGATNPAGGGGAFGGGATTGGGGAFGGGNTQTGGGAFGTANTTTAGGAFGGGNTQPQNGAFGNNNTPATGGAFGQTNNAAPQGAFGGTNNNAASGAFGQKPASANGVLTKPNEKNLCYAISNGTDFCIFELALTQRKLVKAGQLKPGAQAGGAFGQPAQNTQGGAFGGGGAATTPGAFGGAQNNTTGGAFGGQNTQAGGGAFGAPNNAAATGAFGAGNANTQGGAFGAKPAATGGGAFGQPAQTQAGGAFGNTAQPAGGGAFGGATTTPGGGAFGGNTAATGGGAFGGNTQGATGGAFGGQQPNNQGGAFGNTNANTGGGAFGGATTTTGGGAFGGSTGATGGGAFGGASQPAAGGAFGGAAPQQNSGAFGGATAGQTGGAFGGATQQQGGGAFGQTASNPGGGAFGAANATTQPGAFGGNNQAATTSC
modifications: Atto488 (coupled)
B7: Atto488-coupled GXFG//L_(52 × 12) (other)
chain: GSGGFGNTGLAPAGGTFGNTQLQQGGGQFGQPQLTQGGGAFGQTGLTTGGGNFGGATLTAPGGGFGGGGLNPTGGNFGGNNLQQTGGTFGQGTLQTGGGNFGAPQLNQGGGTFGGGTLTTGGGQFGANTLTGGGGQFGGPSLPTTAGPFGSNNLTTGGGNFGQPALTNNGGNFGGQTLNQASGQFGANNLPPTNGKFGNNNLPQTAGTFGGATLTGNTGNFGGANLTGGGGNFGNNTLNPTGGPFGATNLAGGGGTFGGGALTGGGGTFGGGNLQTGGGTFGTANLTTAGGTFGGGNLQPQNGTFGNNNLPATGGNFGQTNLAAPQGNFGGTNLNAASGAFGQKPLSANGVLTKPNEKNLCYAISNGTDFCIFELALTQRKLVKAGQLKPGAQAGGQFGQPALNTQGGAFGGGGLATTPGNFGGAQLNTTGGTFGGQNLQAGGGNFGAPNLAAATGAFGAGNLNTQGGAFGAKPLATGGGQFGQPALTQAGGQFGNTALPAGGGTFGGATLTPGGGAFGGNTLATGGGQFGGNTLGATGGPFGGQQLNNQGGAFGNTNLNTGGGTFGGATLTTGGGGFGGSTLATGGGQFGGASLPAAGGPFGGAALQQNSGAFGGATLGQTGGQFGGATLQQGGGSFGQTALNPGGGAFGAANLTTQPGQFGGNNLAATTSC
modifications: Atto488 (coupled)

The first data set deals with the molecule itself. Description: co-sedimentation; centrifugation assay of phase separation of GLFG_(52 × 12) variants at 25 °C, [FG domain] = 10 μM, [NaCl] = 150 mM, 20 mM NaPi pH 6.8, 5 mM DTT; repeated at 100 μM for GAFG, GLLG and GLAG; critical concentration = concentration of the supernatant.
Details: not given
With B1, the “critical concentration for phase separation” value (from here on “critical concentration”) turned out to be 0.8 µM.

With B2, the “critical concentration” value is more than 100 µM.

With B3, the “critical concentration” value was found to be 8 µM.

For the molecule B4, the “critical concentration” value came to 0.1 µM.

For a further data set, the target named is T1, prf.GLFG_(52 × 12).
T1 construct: engineered from the Tetrahymena thermophila MacNup98A FG domain; plasmid pSNG064; Isotope-labelled (15N, 13C) for NMR; also called perfect repeat; source: E. coli, inclusion bodies, Ni(II) chelate column, tag cut off with bdSENP1 protease, lyophilized; not shown: His14-ZZ-scSUMO, N-terminal, cleaved
T1 chain: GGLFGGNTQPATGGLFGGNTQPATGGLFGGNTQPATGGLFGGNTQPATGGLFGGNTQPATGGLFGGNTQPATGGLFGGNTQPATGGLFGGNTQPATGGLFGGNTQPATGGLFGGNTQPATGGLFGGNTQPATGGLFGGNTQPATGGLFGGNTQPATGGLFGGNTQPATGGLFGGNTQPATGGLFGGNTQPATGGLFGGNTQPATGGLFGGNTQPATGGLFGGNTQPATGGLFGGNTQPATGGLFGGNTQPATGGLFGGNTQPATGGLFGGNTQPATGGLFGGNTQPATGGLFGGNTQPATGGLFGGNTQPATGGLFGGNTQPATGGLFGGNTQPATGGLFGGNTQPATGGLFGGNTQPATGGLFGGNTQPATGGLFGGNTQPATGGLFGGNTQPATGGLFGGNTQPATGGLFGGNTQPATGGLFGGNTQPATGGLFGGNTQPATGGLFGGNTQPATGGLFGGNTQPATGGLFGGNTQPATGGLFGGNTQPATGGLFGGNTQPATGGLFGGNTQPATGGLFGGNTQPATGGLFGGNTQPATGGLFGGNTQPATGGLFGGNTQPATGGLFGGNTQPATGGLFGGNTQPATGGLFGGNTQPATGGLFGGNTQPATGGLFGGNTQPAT
Description: partition of Atto488-coupled FG domains into FG particles (confocal laser scanning microscopy); 20 μM unlabelled prf.GLFG_(52 × 12) premixed with 0.5 μM Atto488-labelled species (GAFG: 3 μM); 20 mM NaPi pH 6.8, 150 mM NaCl, 5 mM DTT; 21 °C; apparent partition coefficient = Atto488 signal IN: OUT of the FG particles. Conditions: both partners purified.
Consider B5, for which the partition coefficient is more than 1000.

As for B6, the partition coefficient came out at 4.

As for B7, the partition coefficient is more than 1000.
